Data on seven molecules can be found in patent US20170165373A1 (Amgen, published 2017).

Like-named read-outs stand apart in the source and are kept apart here.

Assay [1] has as its target T1, human BCMA (huBCMA), full length, on cells (human, UniProt Q02223 1-184).
T1 chain: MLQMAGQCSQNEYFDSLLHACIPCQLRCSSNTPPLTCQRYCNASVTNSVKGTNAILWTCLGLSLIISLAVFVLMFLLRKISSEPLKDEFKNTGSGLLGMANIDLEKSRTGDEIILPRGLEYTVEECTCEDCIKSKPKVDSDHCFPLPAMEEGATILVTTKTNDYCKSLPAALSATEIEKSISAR
Kind of assay: cell-based or functional assay.

Assay [2] deals with T2, recombinant soluble human BCMA (Biacore analyte of Example 2) (human, UniProt Q02223 1-54).
T2 construct: also called rhu BCMA; rsol.hu BCMA
T2 sequence: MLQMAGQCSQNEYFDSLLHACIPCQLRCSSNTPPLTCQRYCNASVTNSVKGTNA
The assay is described as follows: Biacore 3000 SPR, antibody captured on anti-human IgG, rhu BCMA as analyte, 25 C. On the technique in general: Surface plasmon resonance follows binding to a sensor surface in real time, without labels.

Assay [3] has as its target T1, human BCMA (huBCMA), full length, on …. The assay is described as follows: FACS equilibrium titration on 293T cells transiently transfected with human BCMA (relative FACS affinity).
Assay [4] addresses T3, cynomolgus BCMA, on transiently transfected 293T cells (cynomolgus (Macaca fascicularis), UniProt Q02223 1-184 (human entry)).
T3 construct: also called cyno BCMA
The assay is described as follows: FACS equilibrium titration on 293T cells transiently transfected with cynomolgus BCMA (relative FACS affinity).

For assay [5], the target named is T4, TACI, full length, on transiently transfected cells (human, UniProt O14836 1-293).
T4 construct: whole, on cells; also called huTACI
T4 sequence (looked up): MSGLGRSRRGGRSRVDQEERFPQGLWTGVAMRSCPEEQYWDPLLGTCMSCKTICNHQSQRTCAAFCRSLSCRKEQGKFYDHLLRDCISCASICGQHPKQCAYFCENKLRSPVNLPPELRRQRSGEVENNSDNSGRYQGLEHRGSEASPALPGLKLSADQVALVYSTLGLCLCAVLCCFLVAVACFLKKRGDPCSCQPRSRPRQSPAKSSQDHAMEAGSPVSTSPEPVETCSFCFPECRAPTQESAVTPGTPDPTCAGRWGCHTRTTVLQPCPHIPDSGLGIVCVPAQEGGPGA
Kind of assay: FACS on cells transiently transfected with the full-length receptor; positive if MFI is two times the negative control.

Assay [6] concerns the target T5, BAFF-R, full length, on transiently transfected cells (human, UniProt Q96RJ3 1-184).
T5 construct: whole, on cells; also called huBAFF-R
T5 sequence (looked up): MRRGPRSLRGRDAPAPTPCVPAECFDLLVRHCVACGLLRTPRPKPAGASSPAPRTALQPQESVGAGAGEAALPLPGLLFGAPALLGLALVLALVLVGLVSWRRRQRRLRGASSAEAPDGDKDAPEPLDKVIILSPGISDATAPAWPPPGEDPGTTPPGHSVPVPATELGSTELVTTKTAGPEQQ
The assay is described as above.

Assay [7] addresses T1, human BCMA (huBCMA), full length, on …. Kind of assay: FACS. For orientation: In flow cytometry, cells or beads pass a laser one at a time.
Assay [8] addresses T3, cynomolgus BCMA, on transiently …. Kind of assay: FACS.
Assay [9] concerns the target T4, TACI, full length, on transiently …. Kind of assay: FACS.
Assay [10] concerns the target T5, BAFF-R, full length, on transiently …. Kind of assay: FACS.
Assay [11] has as its target T1, human BCMA (huBCMA), full length, on …. The assay is described as follows: FACS, H929 cells.
For assay [12] the target is unchanged. Kind of assay: FACS on H929 cells, native BCMA, relative binding, indirect.
Assay [13] shares this target. The assay is described as follows: FACS.
Assay [14] deals with T3, cynomolgus BCMA, on transiently …. Kind of assay: FACS. The source holds these as a separate data set.
The target in assay [15] is T4, TACI, full length, on transiently …. The assay is described as follows: FACS. The source holds these as a separate data set.
For assay [16], the target named is T3, cynomolgus BCMA, on transiently …. Kind of assay: FACS O/N.
Assay [17] concerns the target T1, human BCMA (huBCMA), full length, on …. The assay is described as follows: APRIL blocking FACS. Further details: concentration or dose not given beside the values.
Assay [18] has the same target. Kind of assay: FACS, H929 cells.

T3 sequence (Q02223 other isoform, or with tags, fused parts or gaps): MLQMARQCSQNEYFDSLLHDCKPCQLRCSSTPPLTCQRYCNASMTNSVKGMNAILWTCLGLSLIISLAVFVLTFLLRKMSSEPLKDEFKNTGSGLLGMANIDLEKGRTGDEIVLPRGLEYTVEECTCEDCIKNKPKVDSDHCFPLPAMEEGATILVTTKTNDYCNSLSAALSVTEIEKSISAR

B1: 1E1 (fully human anti-huBCMA monoclonal antibody) (antibody, IgG1, V domains shown)
VH: QVQLVQSGAEVKKPGASVKVSCKASGYTFTGHYIHWVRQAPGQGLEWMGWIYPNSGGTNYAQKFQGRVTMTRDTSISTAYMELSRLRSDDSAVYYCAREGMVTGDYYYYRMDVWGQGTTVIVSS
VL: QPVLTQPPSASASLGASVTLTCSLSSGYSNYKVDWYQQRPGKGPRFVMRVGIGGIVGSKGDGIPDRFSVLGSGLNRYLTIKNIQEEDESDFHCGADHGSGNNFVYVFGTGTKVTVLG
notes: Recombinantly cloned as IgG1; also called Ab-4
By Kd is commonly meant the concentration at which binding is half-saturated. In the case of B1, the “ADCC EC50, calcein-AM labelled H929 target cells” value in [1] is 0.076 µg/mL. For the same molecule, the Kd in [2] is 0.113 nM; in assay [3] it was 2.8 nM; in assay [4] it was > 100 nM. Moreover, the binding result in [5] and in [6] was “no binding” throughout.

B2: 33D4 (antibody, V domains shown)
VH: QVQLQQSGPGLVKPSQTLSLTCAISGDSVSSTNVAWNWIRQSPSRGLEWLGGTFYRSNWYNDYAISVKSRITINPDTSKNQFSLQLNSVTPEDTAVYYCARFYSWNSYFDYWGQGILVTVSS
VL: QPVLTQPPSASASLGASVTLTCTLSSGYSNYKVDWYQHRPGKGPRFVMRVGTGGIVGSKGDGIPDRFSVLGSGLNRYLTIKNIQEEDESDFHCGADHGSETNFVYVFGTGTKVTVLG
notes: Tested as purified hybridoma IgG2 or IgG4; also called Ab-14; 33D4.1
For B2, the MFI in assay [7] came out at 89900; in assay [8], 19400; in [9] it was 261; in assay [10], 723. Further, the binding result in [9] and in assay [10] was “no binding” throughout.

B3: 2A1CV4 (antibody, human IgG1, lambda, V domains shown)
VH: EVQLVESGGGLVKPGGSLRLSCAASGFTFGDYALSWFRQAPGKGLEWVGVSRSKAYGGTTDYAASVKGRFTISRDDSKSFAYLQMNSLKTEDTAVYYCASSGYSSGWTPFDYWGQGTLVTVSS
VL: not shown
notes: IgG1 covariance mutein of 2A1; also called Ab-38; P61055.3
With B3, the binding result in [11] is on record as “binds”.

B4: 32B5-MCC-DM1 (antibody drug conjugate) (other)
VH: EVQLLESGGALVQPGGSLRLSCAASGFTFSSYAMNWVRQAPGKGLEWVSAISVGGDTYYADSVKGRFTISRDNSKNTLYLHVNSLSAEDSAVYYCAKDQVTLVRGVWYYYGLDVWGQGTTVTVSS
VL: VIVLIQSPLSLPVTPGEPASISCRSSQSLLHSNGNNYLDWYLQKPGQSPHLLISLGSNRTSGVPDRFSGSGSGTDFTLKISRVEAEDVGFYYCMQALQPPRRFGQGTKLEIKR
modifications: antibody carries DM1 through the MCC linker; sites not stated
A word on the EC50: it is the concentration that produces a half-maximal response. As to B4, the “H929 cell growth inhibition IC50 (CellTiter-Glo, 96 h)” value in assay [1] was determined as 0.506 nM. Also, in [12], the EC50 came to 7 nM.

B5: 32B5 (antibody, V domains shown)
VH: EVQLLESGGALVQPGGSLRLSCAASGFTFSSYAMNWVRQAPGKGLEWVSAISVGGDTYYADSVKGRFTISRDNSKNTLYLHVNSLSAEDSAVYYCAKDQVTLVRGVWYYYGLDVWGQGTTVTVSS
VL: VIVLIQSPLSLPVTPGEPASISCRSSQSLLHSNGNNYLDWYLQKPGQSPHLLISLGSNRTSGVPDRFSGSGSGTDFTLKISRVEAEDVGFYYCMQALQPPRRFGQGTKLEIKR
notes: 32B5.1 was purified hybridoma IgG2 or IgG4; later converted to human IgG1; also called Ab-10; 32B5.1
As to B5, the MFI in assay [13] is 137000. Also, in [14], the MFI turned out to be 259000. In assay [15], the MFI was determined as 274 and the binding result is given as “no binding”. Also, the MFI in assay [16] amounted to 108. Further, in assay [17], the “% Inhibition n=1” value was determined as 87%, the “% Inhibition n=2” value is 116% and the “Avg. % Inhibition” value is 101%. Further, the EC50 in assay [12] was 4.2 nM.

B6: 32B5 (T71A) (antibody, human IgG1, kappa, V domains shown)
VH: EVQLLESGGALVQPGGSLRLSCAASGFTFSSYAMNWVRQAPGKGLEWVSAISVGGDTYYADSVKGRFTISRDNSKNTLYLHVNSLSAEDSAVYYCAKDQVTLVRGVWYYYGLDVWGQGTTVTVSS
VL: VIVLIQSPLSLPVTPGEPASISCRSSQSLLHSNGNNYLDWYLQKPGQSPHLLISLGSNRASGVPDRFSGSGSGTDFTLKISRVEAEDVGFYYCMQALQPPRRFGQGTKLEIKR
notes: also called 32B5 (LC: T71A); P70170.3
For the molecule B6, the binding result in assay [18] is “binds”.

B7: 40D7 (antibody, V domains shown)
VH: EVQLLESGGALVQPGGSLRLSCAASGFTFSSYAMNWVRQAPGKGLEWVSAISVGGDTYYADSVKGRFTISRDNSKNTLYLQMNSLRAEDTAVYYCAKDQVTMVRGVWYYYGLDVWGQGTTVTVSS
VL: DIVMIQSPLSLPVTPGEPASISCRSSQSLLHSNGNNFLDWYLQKPGQSPHLLISLGSNRTSGVPDRLSGSGSGTDFTLKISRVEAEDVGIYYCMQALRPPRRFGQGTKLEIKR
notes: also called Ab-17; 40D7.1
For B7, the MFI came to 36300 in assay [7], 39300 in [8] and 1390 in assay [9]. Moreover, in assay [9], the binding result is listed as “no binding”.
